From paper doi:10.1101/2024.03.27.586992, “Molecular basis for condensin enrichment at pericentromeres” (bioRxiv, 2024)

T1: Ycg1 (subunit within the purified pentameric condensin holocomplex) (S. cerevisiae, UniProt Q06680 1-1035)
T1 construct: Ycg1, HAWK subunit of S. cerevisiae condensin; Stood in the assay as a subunit of m2; made a molecule for the cross-links to Sgo1; source: purified from yeast as part of the pentameric condensin complex
T1 sequence (looked up): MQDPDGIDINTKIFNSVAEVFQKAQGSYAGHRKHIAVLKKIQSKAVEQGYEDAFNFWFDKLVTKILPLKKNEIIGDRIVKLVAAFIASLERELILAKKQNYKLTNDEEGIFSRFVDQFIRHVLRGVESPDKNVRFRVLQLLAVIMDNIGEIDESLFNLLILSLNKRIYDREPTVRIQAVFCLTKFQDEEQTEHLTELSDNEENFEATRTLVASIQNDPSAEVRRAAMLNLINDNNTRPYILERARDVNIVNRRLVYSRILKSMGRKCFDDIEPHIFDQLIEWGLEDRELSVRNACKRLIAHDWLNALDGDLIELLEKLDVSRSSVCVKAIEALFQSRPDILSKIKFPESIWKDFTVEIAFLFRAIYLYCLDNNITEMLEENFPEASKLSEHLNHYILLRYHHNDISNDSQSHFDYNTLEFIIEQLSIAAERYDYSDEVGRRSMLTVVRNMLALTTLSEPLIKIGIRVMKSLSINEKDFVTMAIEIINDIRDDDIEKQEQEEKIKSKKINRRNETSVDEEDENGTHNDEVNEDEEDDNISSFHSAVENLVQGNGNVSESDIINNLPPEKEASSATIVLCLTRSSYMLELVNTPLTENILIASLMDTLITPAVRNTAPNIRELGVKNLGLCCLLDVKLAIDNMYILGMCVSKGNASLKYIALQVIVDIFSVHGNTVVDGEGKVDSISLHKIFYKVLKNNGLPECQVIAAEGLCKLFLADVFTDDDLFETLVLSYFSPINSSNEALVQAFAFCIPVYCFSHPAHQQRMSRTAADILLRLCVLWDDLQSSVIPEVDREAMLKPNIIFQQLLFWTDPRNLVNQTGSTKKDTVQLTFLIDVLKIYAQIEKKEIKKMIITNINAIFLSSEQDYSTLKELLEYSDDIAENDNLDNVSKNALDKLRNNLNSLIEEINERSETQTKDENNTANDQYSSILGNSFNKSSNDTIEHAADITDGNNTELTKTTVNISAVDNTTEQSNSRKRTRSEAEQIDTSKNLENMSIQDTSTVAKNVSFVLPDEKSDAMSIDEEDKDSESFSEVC

T2: Ycg1(6-932, Δ499-555)-Brn1(384-529) (S. cerevisiae, UniProt Q06680 6-932; P38170 384-529, Δ499-555)
T2 construct: Brn1, S. cerevisiae, residues 384-529; also called Ycg1-Brn1; Ycg1-short Brn1
T2 sequence (looked up) 1: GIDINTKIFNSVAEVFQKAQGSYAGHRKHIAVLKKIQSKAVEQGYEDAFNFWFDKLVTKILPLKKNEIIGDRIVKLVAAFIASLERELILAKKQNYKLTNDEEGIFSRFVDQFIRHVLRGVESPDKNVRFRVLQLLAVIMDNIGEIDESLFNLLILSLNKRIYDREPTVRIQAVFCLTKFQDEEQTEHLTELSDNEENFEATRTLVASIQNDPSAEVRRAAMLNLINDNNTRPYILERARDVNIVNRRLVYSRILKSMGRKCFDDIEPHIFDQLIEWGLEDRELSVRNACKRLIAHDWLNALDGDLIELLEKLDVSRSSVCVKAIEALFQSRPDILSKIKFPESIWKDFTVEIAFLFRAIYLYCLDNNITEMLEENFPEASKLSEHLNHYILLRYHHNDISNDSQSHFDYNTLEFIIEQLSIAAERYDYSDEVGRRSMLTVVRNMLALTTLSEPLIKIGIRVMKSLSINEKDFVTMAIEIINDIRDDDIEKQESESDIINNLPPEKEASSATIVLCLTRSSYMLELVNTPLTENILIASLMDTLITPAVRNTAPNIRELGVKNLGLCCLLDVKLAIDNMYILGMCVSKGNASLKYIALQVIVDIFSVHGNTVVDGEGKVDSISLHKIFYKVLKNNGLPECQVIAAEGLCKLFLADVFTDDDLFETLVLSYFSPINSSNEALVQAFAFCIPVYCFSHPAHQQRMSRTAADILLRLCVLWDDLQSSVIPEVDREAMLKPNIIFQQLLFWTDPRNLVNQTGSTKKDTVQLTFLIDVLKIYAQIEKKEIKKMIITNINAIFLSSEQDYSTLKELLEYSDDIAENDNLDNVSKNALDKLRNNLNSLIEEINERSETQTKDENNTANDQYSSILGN
T2 sequence (looked up) 2: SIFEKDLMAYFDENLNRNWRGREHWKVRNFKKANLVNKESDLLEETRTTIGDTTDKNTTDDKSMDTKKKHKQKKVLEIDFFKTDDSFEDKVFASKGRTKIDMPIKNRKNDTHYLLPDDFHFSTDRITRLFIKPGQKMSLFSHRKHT

T3: Ycg1(6-932, Δ499-555) (S. cerevisiae, UniProt Q06680 6-932, Δ499-555)
T3 construct: Stood in the assay as a chain of m6; made a molecule for the cross-links
T3 sequence (looked up): T2 sequence (looked up) 1

B1: V5-Sgo1 (FL) (natural protein, S. cerevisiae, UniProt Q08490 1-590, looked up)
chain: MPKRKIAPNKESSRRTVSHDDLTPQIQEFQNLMDLESQKVENIRQSYSRQNSLLAKDNSILKIKVNSLEKKISQLVQENVTLRSKTSISEAIYRERLSNQLQVIENGIIQRFDEIFYMFENVRKNENLPSSSLRTMLKRTSSRSRSCSLSSPTYSKSYTRLSNHENNLSHESSFNKDDGPDLEPKAKKRKSSRRQSMFVSTSLEPEDETGENEPMMENSSVEVPAESHESAQVEETIDALNPEEENSDSVSNFTNSIIEYSIPEENPTEPEHSSSKLEIFNDSTNMLSTVPSNPLPLPLPGPSATLPTTTSDASTVYPSSSSSTNSHPKTKIKHSMKPPRIELKKKVIDEVMPVSNMSSNSEISFTRTRRTRGKAVDYTLPSLRAKMRRPSEKLVDATTVIDIHDLQVSKRNRETSHKRKSLSQDSIPDEPQLREVVVSKDYGTPKGKKTEDEIHEDTAHLMTTSNNNSNNKNEKKLTSNNSPKKSSPLLDITNKSENKKKSTRTKKLFKNAIVNNLSDENSTTRPSKSSKGTSNNNNNYNNFDNNNSNINNVNNKSVSFRLNEDDLAVFDLFGNGKAVKHQPKTYRTKK
notes: Sgo1 (shugoshin), S. cerevisiae, full length; Written V5-Sgo1; also called full length Sgo1; shugoshin; source: protease-deficient yeast strain (AM8184), purified (Ni2+ HiTrap IMAC, Superose 6 gel filtration)
B2: GFP-Sgo1 (472-530) (domain or fragment, S. cerevisiae, UniProt Q08490 472-530, looked up)
chain: KNEKKLTSNNSPKKSSPLLDITNKSENKKKSTRTKKLFKNAIVNNLSDENSTTRPSKSS
notes: Sgo1, S. cerevisiae, residues 472-530 (holds CR1); also called wild type; source: E. coli BL21(DE3), purified (Ni-NTA resin, dialysis)
B3: V5-Sgo1 (350-590) (domain or fragment, S. cerevisiae, UniProt Q08490 350-590, looked up)
chain: EVMPVSNMSSNSEISFTRTRRTRGKAVDYTLPSLRAKMRRPSEKLVDATTVIDIHDLQVSKRNRETSHKRKSLSQDSIPDEPQLREVVVSKDYGTPKGKKTEDEIHEDTAHLMTTSNNNSNNKNEKKLTSNNSPKKSSPLLDITNKSENKKKSTRTKKLFKNAIVNNLSDENSTTRPSKSSKGTSNNNNNYNNFDNNNSNINNVNNKSVSFRLNEDDLAVFDLFGNGKAVKHQPKTYRTKK
notes: Sgo1, S. cerevisiae, residues 350-590 (C-terminal region); also called C-terminus of Sgo1 (350-590); C-Sgo1; source: protease-deficient yeast strain (AM8184), galactose induced, purified as V5-Sgo1 (FL) (Ni2+ IMAC, gel filtration)
B4: GFP-Sgo1(350-590) (domain or fragment, S. cerevisiae, UniProt Q08490 350-590, looked up)
chain: B3 chain
notes: Sgo1, S. cerevisiae, residues 350-590; codon optimized gene; Written GFP-Sgo1; also called GFP-tagged C-Sgo1; wild type
B5: Brn1(384-529) (domain or fragment, S. cerevisiae, UniProt P38170 384-529, looked up)
chain: T2 sequence (looked up) 2
notes: Brn1, S. cerevisiae, residues 384-529; Stood in the assay as a chain of m6; made a molecule for the cross-links; also called short Brn1

Legend:
Conditions in all cases: both partners purified
[1] = biological target: T1, Ycg1 (subunit within the purified …); assay: cross-linking; BS3 cross-linking mass spectrometry of full length Sgo1 with condensin holo-complex, 1:1 (w:w); 25 mM HEPES pH7.5, 150 mM NaCl, 5% glycerol, 1mM DTT; 2 hours on ice; crosslinks with score>10.5
[2] = biological target: T2, Ycg1(6-932, Δ499-555)-Brn1(384-529); assay: co-IP; two purified recombinant proteins incubated 2.5 hours with anti-GFP-coupled dynabeads (GFP-Sgo1 variant held); 25 mM HEPES pH 7.5, 500 mM NaCl, 10 % glycerol, 1 mM DTT, 0.1 % NP-40; silver stain
Ycg1(6-932, Δ499-555) = biological target: T3, Ycg1(6-932, Δ499-555); assay: cross-linking; BS3 cross-linking mass spectrometry; Sgo1: Ycg1-Brn1 molar ratio 1.5:1; 25 mM HEPES pH7.5, 500 mM NaCl, 10% glycerol; 2 hours on ice; crosslinks with score>10.5
[3] = biological target: T2, Ycg1(6-932, Δ499-555)-Brn1(384-529); assay: co-IP; two purified recombinant proteins incubated 2.5 hours with anti-V5-coupled dynabeads (V5-Sgo1 held); 25 mM HEPES pH 7.5, 500 mM NaCl, 10 % glycerol, 1 mM DTT, 0.1 % NP-40; silver stain or immunoblot

Binder	binding result [2]	binding result (Ycg1(6-932, Δ499-555))	also measured
B1	–	–	binding result [1]: binds
B2	binds	–	–
B3	–	binds	binding result [3]: binds
B4	binds	–	–
B5	–	binds	–
